Substitutions are numbered along the chain they refer to. In names and notes the source's numbering stands.
B1: full-length Hook3(V614E)−Myc−FuRed (natural protein)
chain: MFSVESLERAELCESLLTWIQTFNVDAPCQTVEDLTNGVVMAQVLQKIDPAYFDENWLNRIKTEVGDNWRLKISNLKKILKGILDYNHEILGQQINDFTLPDVNLIGEHSDAAELGRMLQLILGCAVNCEQKQEYIQAIMMMEESVQHVVMTAIQELMSKESPVSAGNDAYVDLDRQLKKTTEELNEALSAKEEIAQRCHELDMQVAALQEEKSSLLAENQVLMERLNQSDSIEDPNSPAGRRHLQLQTQLEQLQEETFRLEAAKDDYRIRCEELEKEISELRQQNDELTTLADEAQSLKDEIDVLRHSSDKVSKLEGQVESYKKKLEDLGDLRRQVKLLEEKNTMYMQNTVSLEEELRKANAARSQLETYKRQVVELQNRLSEESKKADKLDFEYKRLKEKVDSLQKEKDRLRTERDSLKETIEELRCVQAQEGQLTTQGLMPLGSQESSDSLAAEIVTPEIREKLIRLQHENKMLKLNQEGSDNEKIALLQSLLDDANLRKNELETENRLVNQRLLEVQSQVEELQKSLQDQGSKAEDSVLLKKKLEEHLEKLHEANNELQKKRAIIEDLEPRFNNSSLKIEELQEALRKKEEEMKQMEERYKKYLEKAKSEIRTLDPKQNQGAAPEIQALKNQLQERDRLFHSLEKEYEKTKSQREMEEKYIVSAWYNMGMTLHKKAAEDRLASTGSGQSFLARQRQATSSRRSYPGHVQPATAR
B2: full-length Hook3(WT)−Myc−FuRed (natural protein)
chain: B1 chain with E614V

Tests used:
[1] = target: T1, full-length KIF1C(WT)−Flag−EGFP (UniProt O43896)
T1 sequence: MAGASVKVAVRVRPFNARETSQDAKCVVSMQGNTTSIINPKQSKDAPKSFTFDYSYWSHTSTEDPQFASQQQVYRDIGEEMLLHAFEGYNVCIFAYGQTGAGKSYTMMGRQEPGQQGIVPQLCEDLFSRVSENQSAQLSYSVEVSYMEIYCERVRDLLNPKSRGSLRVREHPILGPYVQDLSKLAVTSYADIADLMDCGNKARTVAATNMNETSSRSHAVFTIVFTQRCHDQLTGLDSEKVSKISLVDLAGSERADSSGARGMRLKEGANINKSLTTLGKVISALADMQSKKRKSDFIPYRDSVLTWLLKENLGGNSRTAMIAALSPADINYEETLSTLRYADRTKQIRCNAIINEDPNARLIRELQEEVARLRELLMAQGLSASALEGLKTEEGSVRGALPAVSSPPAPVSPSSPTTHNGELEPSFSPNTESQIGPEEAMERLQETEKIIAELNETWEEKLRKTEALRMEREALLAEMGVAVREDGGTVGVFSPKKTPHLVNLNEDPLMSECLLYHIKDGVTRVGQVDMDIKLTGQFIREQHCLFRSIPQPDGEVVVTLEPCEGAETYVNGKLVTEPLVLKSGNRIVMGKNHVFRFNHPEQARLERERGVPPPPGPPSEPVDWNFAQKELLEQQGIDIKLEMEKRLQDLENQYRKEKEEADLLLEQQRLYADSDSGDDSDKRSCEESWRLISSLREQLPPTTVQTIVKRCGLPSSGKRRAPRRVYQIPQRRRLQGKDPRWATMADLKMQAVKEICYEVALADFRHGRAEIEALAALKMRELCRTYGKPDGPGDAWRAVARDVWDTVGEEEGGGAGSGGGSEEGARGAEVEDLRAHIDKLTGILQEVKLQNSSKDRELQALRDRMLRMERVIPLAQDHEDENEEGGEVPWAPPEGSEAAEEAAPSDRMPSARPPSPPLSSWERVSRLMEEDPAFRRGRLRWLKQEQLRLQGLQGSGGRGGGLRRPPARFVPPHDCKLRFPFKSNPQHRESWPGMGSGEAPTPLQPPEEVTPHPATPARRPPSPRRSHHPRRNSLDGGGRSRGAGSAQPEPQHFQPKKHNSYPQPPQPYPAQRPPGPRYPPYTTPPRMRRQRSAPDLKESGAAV

[2] = target: T2, full-length KIF1C(Y757A ∙ F764A)−Flag−EGFP (UniProt O43896)
T2 sequence: T1 sequence with Y757A, F764A

Binder | tail/cytoplasm ratio of Hook3−Myc−FuRed upon co-expression in RPE1 cells, 16 h post transfection (tail/cytoplasm ratio) [1] | tail/cytoplasm ratio of Hook3−Myc−FuRed upon co-expression in RPE1 cells, 16 h post transfection (tail/cytoplasm ratio) [2]
B1 | 0.7 | 0.7
B2 |  | 0.7

Source: article PMC12152161
